These results are taken from patent US20250026813A1 (published 2025).

In test [1] the target is SARS-CoV-2 spike protein receptor binding domain (isolated RBD) (SARS-CoV-2, UniProt P0DTC2 319-541).
Test [2] deals with T1, S2 subunit of the SARS-CoV-2 spike protein (Sino Biological 40590-V08B), His tag (SARS-CoV-2, UniProt P0DTC2 686-1213).
T1 construct: domain: S2 subunit

B1: IMPI-055 (antibody, V domains shown)
VH: QVQLVQSGAEVKKPGASVKVSCKASGYTFTSYDINWVRQATGQGLEWMGWMNPNSGNTGYAQKFQGRVTMTRDTSINTAYMELSSLRSEDTAVYFCARGGRYCSDVTCYSGEPFDYWGQGTLVTVSS
VL: EIMLTQSPDFQSVTPKEKVTITCRASQSIGSSLHWYQQKPDQSPKLLIKFASQSISGVPSRFSGSGSGTDFTLTINSLEAEDAAAYYCHQSSSLPHTFGPGTKVEIK
As for B1, in test [1], the dissociation constant Kd was determined as 0.959 nM, the off-rate constant (koff) was determined as 0.00264 s⁻¹ and the kon worked out at 2.75e+06 M⁻¹ s⁻¹.

B2: IMPI-063 (antibody, V domains shown)
VH: EVQLVESGGGVVRPGGSLRLSCAASGFTFDDYGMSWVRQAPGKGLEWVSGIYWNGGSTGYADSVKGRFTISRDNAKNSLYLQMNSLRAEDMALYYCARGVGATDYWGQGTLVTVSS
VL: EIVLTQSPGTLSLSSGERATLACRASESVRGSFLAWYQQKPGQAPRLLIYGASRRATGIPDRFSGSGSGTDFTLTISRLEPEDFAVYYCQQYGNSPMCSFGQGTKLEIK
Turning to B2, the “HTRF deltaF” value in test [2] came to 411 deltaF.

B3: IMPI-054 (antibody, V domains shown)
VH: EVQLVESGGGLIQPGGSLRLSCAASGLTVSSNYMSWVRQAPGKGLEWVSIIYSGGSTYYADSVKGRFTISRDNSKNTLYLQMNSLRAEDTAVYYCARLGGYYYYGMDVWGQGTTVTVSS
VL: DIQMTQSPSSLSASVGERVTITCQASQDIRNYLNWYQKKPGKAPKLLIYDSSNLETGVPSRFSGSGSGTDFTFTISSLQPEDIATYYCQQYDNLPITFGQGTRLEIK
Regarding B3, the “HTRF deltaF” value in test [2] worked out at 15.8 deltaF.

B4: IMPI-054 (antibody, V domains shown)
VH: EVQLVESGGGLIQPGGSLRLSCAASGLTVSSNYMSWVRQAPGKGLEWVSIIYSGGSTYYADSVKGRFTISRDNSKNTLYLQMNSLRAEDTAVYYCARLGGYYYYGMDVWGQGTTVTVSS
VL: DIQMTQSPSSLSASVGERVTITCQASQDIRNYLNWYQKKPGKAPKLLIYDSSNLETGVPSRFSGSGSGTDFTFTISSLQPEDIATYYCQQYDNLPITFGQGTRLEIK
In test [1], B4 returned a Kd of 1.11 nM, a koff of 0.000627 s⁻¹ and a kon of 564000 M⁻¹ s⁻¹.

B5: IMPI-042 (antibody, V domains shown)
VH: EVQLVESGGGLIQPGGSLRLSCAASGLTVSSNYMSWVRQAPGKGLEWVSIIYSGGSTYYADSVKGRFTISRDNSKNTLYLQMNSLRAEDTAVYYCARLGGYYYYGMDVWGQGTTVTVSS
VL: DIQMTQSPSSLSASVGERVTITCQASQDIRNYLNWYQKKPGKAPKLLIYDSSNLETGVPSRFSGGGSGTDFTFTISSLQPEDIATYYCQQYDNLPITFGQGTRLEIK
Regarding B5, the “HTRF deltaF” value in test [2] amounted to 1.6 deltaF.

B6: IMPI-042 (antibody, V domains shown)
VH: EVQLVESGGGLIQPGGSLRLSCAASGLTVSSNYMSWVRQAPGKGLEWVSIIYSGGSTYYADSVKGRFTISRDNSKNTLYLQMNSLRAEDTAVYYCARLGGYYYYGMDVWGQGTTVTVSS
VL: DIQMTQSPSSLSASVGERVTITCQASQDIRNYLNWYQKKPGKAPKLLIYDSSNLETGVPSRFSGGGSGTDFTFTISSLQPEDIATYYCQQYDNLPITFGQGTRLEIK
For B6, in test [1], the equilibrium dissociation constant (Kd) turned out to be 1.15 nM, the koff came out at 0.000617 s⁻¹ and the kon worked out at 536000 M⁻¹ s⁻¹.

B7: IMPI-038 (antibody, V domains shown)
VH: QVQLVESGGGVVQPGRSLRLSCAASGFTFSSYGMHWVRQAPGKGLEWVAVISYDGSDKYYADSVKGRFTISRDNSKNTLYLQMNSLRAEDTAVYYCAKTVAGYYYYYYGMDVWGQGTTVTVSS
VL: DIQMTQSPSSVSASVGDRVTVTCRASQDISSWLAWFQQKPGKAPKFLIYDASNLENGVPSRFSGSGSGTDFTLTISSLQPEDFATYYCQQAKSFPWTFGQGTKVEIN
B7 returned a dissociation constant (Kd) in test [1] of 2.92 nM.

B8: IMPI-024 (antibody, V domains shown)
VH: EVQLVQSGAEVKKPGESLKISCKGSGYSFTSYWIGWVRQMPGKGLEWMGIIYPGDSDTRYSPSFQGQVTISADKSISTAYLQWSSLKASDTAMYYCVRSYNWNYFDYWGQGTLVTVSS
VL: AIQLTQSPSSLSASVGDRVTITCRASQGISSGLAWYQQKAGKAPKLLIYDVSSLESGVPSRFSGSGSGTDFTLTISSLQPEDFATYYCQQFLSYPWTFGQGTKVEIK
Take B8: the “HTRF deltaF” value in test [2] is -15.4 deltaF.

B9: IMPI-024 (antibody, V domains shown)
VH: EVQLVQSGAEVKKPGESLKISCKGSGYSFTSYWIGWVRQMPGKGLEWMGIIYPGDSDTRYSPSFQGQVTISADKSISTAYLQWSSLKASDTAMYYCVRSYNWNYFDYWGQGTLVTVSS
VL: AIQLTQSPSSLSASVGDRVTITCRASQGISSGLAWYQQKAGKAPKLLIYDVSSLESGVPSRFSGSGSGTDFTLTISSLQPEDFATYYCQQFLSYPWTFGQGTKVEIK
As for B9, in test [1], binding was put at a Kd of 0.633 nM, the koff was determined as 0.00134 s⁻¹ and the kon is 2.12e+06 M⁻¹ s⁻¹.

B10: IMPI-027 (antibody, V domains shown)
VH: QVQLQESGPGLVKPSQTLSLTCTVSGGSISSYGYYWNWIRQHPGKGLEWIGYIYYSGSTYYNPSLKSRVTISVDTSKNQLSLRLNSVSAADTAVYYCARDFGGNSNYFDYWGQGTLVTVSS
VL: AIQLTQSPSSLSASVGDRVTITCRTSQGISSALAWYQQKPGKAPKLLIYDASSLESGVPSRFSGSGSGTDFTLTISSLQPEDFATYYCQQFNSYPLTFGGGTKVEIK
In test [1], B10 gave a Kd of 4.06 nM, a koff of 26.3 s⁻¹ and a kon of 6.48e+09 M⁻¹ s⁻¹.

B11: IMPI-068 (antibody, V domains shown)
VH: QVQLVESGGDVVQPGRSLRLSCAASGFTFSRYGMHWVRQAPGKGLEWVAVISYDGSDKYYADSVKGRFTISRDNSKNTLYLQMNSLRAEDTAVYYCAKQLPLYYYYYGMDVWGQGTTVTVSS
VL: AIQLTQSPSSLSASVGDRVTITCRASQGISSALAWYQQKPGKAPNLLIYDASSLESGVPSRFSGSGSGTDFTLTISSLQPEDFATYYCQQFNIYPHTFGPGTKVDIK
With B11, binding in test [1] was put at a Kd of 40.5 nM.

B12: IMPI-033 (antibody, V domains shown)
VH: QVQLQESGPGLVKPSQTLSLTCTVSGGSISSYGYYWSWIRQHPGKGLEWIGYIYYSGSTYYNPSLKSRVTMSVDTSKNQLSLRLNSVSAADTAVYYCARDFGGNSNYFDYWGQGTLVTVSS
VL: AIQLTQSPSSLSASVGDRVTITCRASQGISSALAWYQQKPGKAPNLLIYDASSLESGVPSRFSGSGSGTDFTLTISSLQPEDFATYYCQQFNSSPLTFGGGTKVEIK
In test [1], B12 registered a Kd of 3.37 nM, a koff of 0.00741 s⁻¹ and a kon of 2.2e+06 M⁻¹ s⁻¹.

B13: IMPI-059 (antibody, V domains shown)
VH: EVQLVESGGGLIQPGGSLRLSCAASGFTVSSIYMSWVRQAPGKGLEWVSIIYSRGSTDYADSVKGRFTISRDISKNTLYLQMNSLRAEDTAVYYCARDGTMVRGVHAFDIWGQGTMVTVSS
VL: DIQMTQSPPSLSASIGDRVTITCQASQDISNYLNWYQQKPGKAPKLLIYDASNLETGVPSRFSGSGSGTDFTLTISNLQPEDIVTYYCQQYDNLPSSFGQGTKLEIK
For B13, in test [1], the dissociation constant Kd came out at 0.646 nM, the off-rate (koff) was 0.00426 s⁻¹ and the kon stood at 6.59e+06 M⁻¹ s⁻¹.

B14: IMPI-029 (antibody, V domains shown)
VH: EVQLVESGGGLIQPGGSLRLSCAASGVTVSSNYMNWVRQAPGKGLEWVSVIYSGGSTYYADSVKGRFTISRDNSKNTLFLQMNSLRAEDSAVYYCARDLGPYGVDVWGQGTTVTVSS
VL: DIQLTQSPSFLSASVGDRVTITCWASQGISSYLAWYQQKPGKAPKLLIYAASTLQSGVPSRFSGSGSGTEFTLTISSLQPEDFATYYCQELNSYPLTFGQGTRLEIK
In the case of B14, the “HTRF deltaF” value in test [2] turned out to be 4.1 deltaF.

B15: IMPI-037 (antibody, V domains shown)
VH: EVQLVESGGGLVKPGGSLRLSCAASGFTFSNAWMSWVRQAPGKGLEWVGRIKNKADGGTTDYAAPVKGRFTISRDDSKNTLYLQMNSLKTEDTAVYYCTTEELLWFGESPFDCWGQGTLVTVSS
VL: DIQLTQSPSFLSASVGDRVTITCWASQGINSYLAWYQQKPGKAPKLLIYAASTLQSGVPSRFSGSGSGTEFTLTISSLQPEDFTTYYCQQFNDYPRTFGPGTKVEIK
Consider B15, for which, in test [1], binding was characterised by a dissociation constant (Kd) of 9.28 nM, the koff is 0.0232 s⁻¹ and the kon turned out to be 2.5e+06 M⁻¹ s⁻¹.

B16: IMPI-047 (antibody, V domains shown)
VH: EVQLVESGGGLIQPGGSLRLSCAASGFTVSSNYMNWVRQAPGKGLEWVSVIYSGGSTYYADSVKGRFTISRDNSKNTLYLQMNSLRTEDTAVYYCARDLVAYGMDVWGQGTTVTVSS
VL: DIQLTQSPSFLSASVGDRVTITCWASQGISSYLAWYQQKPGKAPKVLIYAASTLQSGVPSRFSGSGSGTEFTLTISSLQPEDFATYYCQLLNSNPLTFGGGTKVEIK
As for B16, the “HTRF deltaF” value in test [2] stood at 4.3 deltaF.

B17: IMPI-017 (antibody, V domains shown)
VH: EVQLVESGGGLIQPGGSLRLSCAAAGLTVSSNYMNWVRQVPGKGLEWVSVIYSGGSTYYADSVKGRFTISRDNSKNTLYLQMNSLRAEDTAVYYCARDLGTLGMDVWGQGTTVTVSS
VL: DIQLTQSPSFLSASVGDRVTITCWASQGISTYLAWYQQKPGKAPKLLIYAASTLQSGVPSRFSGSGSGTEFTLTISSLQPEDFATYYCQQLNSYLPTFGQGTKVEIK
On to B17, for which, in test [1], the Kd is 1.87 nM, the dissociation rate constant (koff) came to 0.000976 s⁻¹ and the on-rate (kon) was found to be 522000 M⁻¹ s⁻¹.

B18: IMPI-060 (antibody, V domains shown)
VH: EVQLVESGGGLIQPGGSLRLSCAASGVTVSSNYMSWVRQAPGKGLEWVSVIYSGGSTFYADSVKGRFTISRDNSKNTLYLQMNSLRAEDTAVYYCARDLSYYGMDVWGQGTTVTVSS
VL: DIQLTQSPSFLSASVGDRVTITCWASQGISSYLAWYQQKPGKAPKLLIYAASTLQSGVPSKFSGSGSGTEFTLTISSLQPEDFATYYCQQLNSYPSSFGQGTKLEIK
Take B18: the “HTRF deltaF” value in test [2] is 6 deltaF.

B19: IMPI-021 (antibody, V domains shown)
VH: EVQLVESGGGLIQPGGSLRLSCAASGVTVSSNYMSWVRQAPGKGLEWVSVIYSGGSTFYADSVKGRFTISRDNSKNTLYLQMNSLRAEDTAVYYCARDLSYYGMDVWGQGTTVTVSS
VL: DIQLTQSPSFLSASVGDRVTITCWASQGISSYLAWYQQKPGKAPKLLIYAASTLQSGVPSKFSGSGSGTEFTLTISSLQPEDFATYYCQQLNSYPCSFGQGTKLEIK
B19: the “HTRF deltaF” value in test [2] is -0.3 deltaF.

B20: IMPI-005 (antibody, V domains shown)
VH: EVQLVESGGGLIQPGGSLRLSCAASGFTVSSNYMNWVRQAPGKGLEWVSVIYSGGSTYYADSVKGRFTISRDNSKNTLFLQMNSLRAEDSAVYYCARDLGPYGVDVWGQGTTVTVSS
VL: DIQLTQSPSFLSASVGDRVTITCWASQGISSYLAWYQQKPGKAPKLLIYAASTLQSGVPSRFSGSGSGTEFTLTISSLQPEDFATYYCQELNSYPLTFGQGTRLEIK
Consider B20, for which the “HTRF deltaF” value in test [2] is -1.8 deltaF.
